Measured values reported in patent US20240317834A1, “COMPOSITIONS AND METHODS FOR NEUROLOGICAL DISEASES” (CODA BIOTHERAPEUTICS, INC., priority 2020, published 2024).

Tested on: Lenti-X 293T cells
Assay: YFP fluorescence quenching anion reporter plate reader assay of engineered receptors stimulated with acetylcholine or a non-native ligand
Format: cell-based
Details: for percent quench of YFP fluorescence, 30 nM TC-6683: TC-6683 30 nM; for percent quench of YFP fluorescence, 300 nM TC-6683: TC-6683 300 nM; for percent quench of YFP fluorescence, 3 uM TC-6683: TC-6683 3 uM; for percent quench of YFP fluorescence, 30 uM TC-6683: TC-6683 30 uM; for percent quench of YFP fluorescence, 100 uM TC-6683: TC-6683 100 uM; for percent quench of YFP fluorescence, 10 uM ach: acetylcholine 10 uM; for percent quench of YFP fluorescence, 100 uM ach: acetylcholine 100 uM; for percent quench of YFP fluorescence, 1 mM ach: acetylcholine 1 mM; for percent quench of YFP fluorescence, 3 mM ach: acetylcholine 3 mM
In short: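 Lenti-X 293T cells carrying a YFP anion reporter were transiently transfected with channel DNA and assayed the next day in HEPES-buffered ECS at pH 7.2. Ligand (acetylcholine or non-native ligand) was added in NaI-substituted ECS. Percent quench was the mean of the last 10 s relative to the 15 s pre-addition baseline.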

B1: CODA807: engineered chimeric LGIC receptor, Y115D, L131E in SEQ ID NO: 33 (protein)
chain: MRCSPGGVWLALAASLLHVSLQGEFQRKLYKELVKNYNPLERPVANDSQPLTVYFSLSLLQIMDVDEKNQVLTTNIWLQMSWTDHYLQWNVSEYPGVKTVRFPDGQIWKPDILLDNSADERFDATFHTNVEVNSSGHCQYLPPGIFKSSCPMDLKNFPMDVQTCKLKFGSWSYGGWSLDLQMQEADISGYIPNGEWDLVGIPGKRSERFYECCKEPYPDVTFTVTMRRRMGYYLIQMYIPSLLIVILSWISFWINMDAAPARVGLGITTVLTMTTQSSGSRASLPKVSYVKAIDIWMAVCLLFVFSALLEYAAVNFVSRQHKELLRFRRKRRHHKSPMLNLFQEDEAGEGRFNFSAYGMGPACLQAKDGISVKGANNSNTTNPPPAPSKSPEEMRKLFIQRAKKIDKISRIGFPMAFLIFNMFYWIIYKIVRREDVHNQ
modifications: synthetic sequence of chimeric LGIC
YFP fluorescence quenching using CNL001 (1 nM CNL001, first column): 0.885% | YFP fluorescence quenching using CNL001 (1 nM CNL001, second column): −1.707% | YFP fluorescence quenching using TC-5619/Bradanicline (1 nM brd): −1.52% | YFP fluorescence quenching using TC-5619/Bradanicline (3 nM brd): −5.35% | YFP fluorescence quenching using CNL001 (10 nM CNL001, first column): −0.567% | YFP fluorescence quenching using CNL001 (10 nM CNL001, second column): 0.043% | YFP fluorescence quenching using TC-5619/Bradanicline (10 nM brd): −3.49% | YFP fluorescence quenching using TC-5619/Bradanicline (30 nM brd): −2.16% | YFP fluorescence quenching using Facinicline (30 nM fac): 45.76 | YFP fluorescence quenching using CNL001 (50 nM CNL001, first column): 5.141% | YFP fluorescence quenching using CNL001 (50 nM CNL001, second column): 9.409% | YFP fluorescence quenching using ABT-126 (50 nM abt): −1.68% | YFP fluorescence quenching using CNL001 (100 nM CNL001, first column): 9.796% | YFP fluorescence quenching using CNL001 (100 nM CNL001, second column): 11.009% | YFP fluorescence quenching using CNL002 (100 nM CNL002): −5.71% | YFP fluorescence quenching using ABT-126 (100 nM abt): −2.25% | YFP fluorescence quenching using AZD-0328 (100 nM azd0328): 24.49% | YFP fluorescence quenching using TC-5619/Bradanicline (100 nM brd): 4.18% | YFP fluorescence quenching using Facinicline (100 nM fac): 63.92 | YFP fluorescence quenching using ABT-126 (300 nM abt): −2.37% | YFP fluorescence quenching using AZD-0328 (300 nM azd0328): 45.34% | YFP fluorescence quenching using TC-5619/Bradanicline (300 nM brd): 70.2% | YFP fluorescence quenching using Facinicline (300 nM fac): 79.43 | YFP fluorescence quenching using CNL001 (1 uM CNL001, first column): 27.914% | YFP fluorescence quenching using CNL001 (1 uM CNL001, second column): 29.109% | YFP fluorescence quenching using CNL002 (1 uM CNL002): 13.03% | YFP fluorescence quenching using ABT-126 (1 uM abt): 3.68% | YFP fluorescence quenching using TC-5619/Bradanicline (1 uM brd): 43.11% | YFP fluorescence quenching using TC-6987 (1 uM tc6987): 36.07 | YFP fluorescence quenching using Facinicline (10 uM fac): 80.1 | YFP fluorescence quenching using TC-6987 (10 uM tc6987): 31.35 | YFP fluorescence quenching using CNL002 (30 uM CNL002): 25.2% | YFP fluorescence quenching using AZD-0328 (30 uM azd0328): 71.21% | YFP fluorescence quenching using Facinicline (30 uM fac): 84.91 | YFP fluorescence quenching using TC-6987 (500 uM tc6987): 28.18 | percent quench of YFP fluorescence, 30 nM TC-6683: −26.801% | percent quench of YFP fluorescence, 300 nM TC-6683: −25.363% | percent quench of YFP fluorescence, 3 uM TC-6683: −23.651% | percent quench of YFP fluorescence, 30 uM TC-6683: −26.235% | percent quench of YFP fluorescence, 100 uM TC-6683: −24.182% | percent quench of YFP fluorescence, 10 uM ach: 15.45% | percent quench of YFP fluorescence, 100 uM ach: 13.77% | percent quench of YFP fluorescence, 1 mM ach: 27.42% | percent quench of YFP fluorescence, 3 mM ach: 53.62%

B2: CODA952: engineered chimeric LGIC receptor, Y140I in SEQ ID NO: 33 (protein)
chain: MRCSPGGVWLALAASLLHVSLQGEFQRKLYKELVKNYNPLERPVANDSQPLTVYFSLSLLQIMDVDEKNQVLTTNIWLQMSWTDHYLQWNVSEYPGVKTVRFPDGQIWKPDILLYNSADERFDATFHTNVLVNSSGHCQILPPGIFKSSCPMDLKNFPMDVQTCKLKFGSWSYGGWSLDLQMQEADISGYIPNGEWDLVGIPGKRSERFYECCKEPYPDVTFTVTMRRRMGYYLIQMYIPSLLIVILSWISFWINMDAAPARVGLGITTVLTMTTQSSGSRASLPKVSYVKAIDIWMAVCLLFVFSALLEYAAVNFVSRQHKELLRFRRKRRHHKSPMLNLFQEDEAGEGRFNFSAYGMGPACLQAKDGISVKGANNSNTTNPPPAPSKSPEEMRKLFIQRAKKIDKISRIGFPMAFLIFNMFYWIIYKIVRREDVHNQ
modifications: synthetic sequence of chimeric LGIC
YFP fluorescence quenching using CNL001 (1 nM CNL001, first column): 0.368% | YFP fluorescence quenching using CNL001 (1 nM CNL001, second column): −1.976% | YFP fluorescence quenching using TC-5619/Bradanicline (3 nM brd): −2.45% | YFP fluorescence quenching using Varenicline (3 nM var, first column): −22.522 | YFP fluorescence quenching using Varenicline (3 nM var, second column): −18.173 | YFP fluorescence quenching using CNL001 (10 nM CNL001, first column): −3.923% | YFP fluorescence quenching using CNL001 (10 nM CNL001, second column): 4.348% | YFP fluorescence quenching using TC-5619/Bradanicline (30 nM brd): 66.97% | YFP fluorescence quenching using Facinicline (30 nM fac): −8.83 | YFP fluorescence quenching using Varenicline (30 nM var, first column): −15.306 | YFP fluorescence quenching using Varenicline (30 nM var, second column): −12.832 | YFP fluorescence quenching using CNL001 (50 nM CNL001, first column): 74.107% | YFP fluorescence quenching using CNL001 (50 nM CNL001, second column): 75.866% | YFP fluorescence quenching using ABT-126 (50 nM abt): −12.34% | YFP fluorescence quenching using CNL001 (100 nM CNL001, first column): 80.323% | YFP fluorescence quenching using CNL001 (100 nM CNL001, second column): 81.996% | YFP fluorescence quenching using CNL002 (100 nM CNL002): 32.58% | YFP fluorescence quenching using ABT-126 (100 nM abt): −11.57% | YFP fluorescence quenching using AZD-0328 (100 nM azd0328): −12.96% | YFP fluorescence quenching using ABT-126 (300 nM abt): −5.21% | YFP fluorescence quenching using AZD-0328 (300 nM azd0328): −13.21% | YFP fluorescence quenching using TC-5619/Bradanicline (300 nM brd): 78.48% | YFP fluorescence quenching using Facinicline (300 nM fac): 51.6 | YFP fluorescence quenching using Varenicline (300 nM var, first column): −14.671 | YFP fluorescence quenching using Varenicline (300 nM var, second column): −17.016 | YFP fluorescence quenching using Varenicline (500 nM var, first column): −16.713 | YFP fluorescence quenching using Varenicline (500 nM var, second column): −18.893 | YFP fluorescence quenching using CNL001 (1 uM CNL001, first column): 83.489% | YFP fluorescence quenching using CNL001 (1 uM CNL001, second column): 82.208% | YFP fluorescence quenching using CNL002 (1 uM CNL002): 69.08% | YFP fluorescence quenching using ABT-126 (1 uM abt): 3.93% | YFP fluorescence quenching using TC-6987 (1 uM tc6987): 6.03 | YFP fluorescence quenching using Varenicline (1 uM var, first column): −15.847 | YFP fluorescence quenching using Varenicline (1 uM var, second column): −16.236 | YFP fluorescence quenching using TC-6987 (10 uM tc6987): 2.25 | YFP fluorescence quenching using CNL002 (30 uM CNL002): 73.28% | YFP fluorescence quenching using AZD-0328 (30 uM azd0328): 68.5% | YFP fluorescence quenching using Facinicline (30 uM fac): 71.01 | YFP fluorescence quenching using TC-6987 (500 uM tc6987): −0.24 | percent quench of YFP fluorescence, 30 nM TC-6683: −27.7% | percent quench of YFP fluorescence, 300 nM TC-6683: −26.87% | percent quench of YFP fluorescence, 3 uM TC-6683: −31.2% | percent quench of YFP fluorescence, 30 uM TC-6683: −33.12% | percent quench of YFP fluorescence, 100 uM TC-6683: −24.67% | percent quench of YFP fluorescence, 10 uM ach: −1.97% | percent quench of YFP fluorescence, 100 uM ach: 2.79% | percent quench of YFP fluorescence, 1 mM ach: 58.81% | percent quench of YFP fluorescence, 3 mM ach: 66.9%
